Experiment: yeast display, Sf9 membrane polyspecificity reagent, FACS + sequencing; frameworks hold sequencing errors
How it was run: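 Nanobodies came from a synthetic yeast display library in Saccharomyces cerevisiae BJ5465, induced with galactose for 36–48 hours and stained for 1 hour at 4 °C with 10% biotinylated, detergent-solubilized Sf9 membrane reagent. Cells were enriched on streptavidin microbeads and then FACS-sorted, with low and high (top ~1%) gates set on anti-HA fluorescence for expression and streptavidin fluorescence for reagent binding. Each polyreactivity label reflects the gate a clone came from. Genes were amplified by colony PCR, sequenced by MiSeq 2 × 250 and filtered by CDR length.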

Sequence | polyreactivity (PSR sort gate)
QVQLVESGGGLVQAGGSLRLSCAASGFTFYRYAMGWYRQAPGKERELVATISASGGSTYYADSVKGRFTISRDNAKNTVYLQMNSLKPEDTAVYYCAVRYKSWYGFNYWGQGTQVTVSS | high polyreactivity
QVQLVESGGGLVQAGGSLRLSCAASGRTFPAYAMGWYRQAPGKERELVARISYSGGNTYYADSVKGRFTISRDNAKNTVYLQMNSLKPEDTAVYYCAATRSHYPYRSGGDYWGQGTQVTVSS | low polyreactivity
QVQLVESGGGLVQAGGSLRLSCAASGSTFAKYAMGWYRQAPGKESELVASIRLSGGSTYYADSVKGRFTISRDNAKNTVYVQRNSLKPEDTAVYYCNKQFATFYYGFDYSYWGQGTQVTVSS | low polyreactivity
QVQLVESGGGLVQAGGSLRLSCAASGSIFPSYAMGWYRQAPGKERELVATISGSGTRTYYADSVKGRFTISRDNAKNTVYVQMNSLKPEDTAVYDCARLPPGDMDYWGQGTQVTVSS | low polyreactivity
QVQLVESGGGLVQAGGSLRLSCAASGSTFPNYAMGWYRQAPGKERELVASISVTTGSTYYADSVKGRFTISRDYAKNTVYLQMNSLKPEDTAVYYCAKRTSSRKFRGAYNYWGQGTQVTVST | high polyreactivity
QVQLVESGGGLVQAGGSLRLSCAASGFIFSGYTMGWYRQAPGKERELVAAITKRGGRTYYADSVKGRFTISRDNAKNTVYLQMNSLKPEDTAVYYCNVDVKVYSDETTDGDYWGQGTQVTVSS | high polyreactivity
QVQIVESGGGLVQAGGSLRLSCAASGSTLSYYGMGWYRQAPGKERELVAAISTGGRTYYADSVKGRFSISRDNATNTVFLQMTSLKPEDTAVYYCNALYVSYVSRYDYWGQGTQVTVSS | high polyreactivity
QVQLVDSGGGLVQAGGSLRLSCAASGSISSFYAMGWYRQAPGKERELVAGITSGGSTNYADSVKGRFTISRDNAKNTVYLQMNSLKPEDTAVYYCAAVYKGAGTHFDVFVKEFDYWGQGTQVTVSS | low polyreactivity
QVQLVESGGGLVQAGGSLRLSCAASGLTFDYYAMGWYRQAPGKERELVAAIDWSGGSTYYADSVKGRFTISRDNAKNTVYLQMNSLKPEDTAVYYCATESDDSGMDYWGQGTQVTVSS | low polyreactivity
QVQLVESGGGLVQAGGSLRLSCAASGSISFSNAMGWYRQAPGKERELVAAISWSGGRTYYADSVKGRCTISRDNAKNTVYLQMNSLKPEDTAVYYCAADDFRYGRQVLGLNDYNYWGLGTQVTVSS | low polyreactivity
QVQLVESGGGLVQAGGRLRLSCAASGIIFRWYTMGWYRQAPGKERELVAAISTSTGSTYYADSVKGRFTISRDNAKNTVYLQMNSLKPEDSAVYYCAAVYAYWNYESYYWGQGTQVTVSS | high polyreactivity
QVQLVESGGGLVQAGGSLRLSCAASGSTFWLNAMGWYRQAPGKERELVADISRSGGSTYYADSVKGRFTISRDNAKNTVYLQMNSLKPEDTAVYYCAADSWPDQFTVYPGGDYWGQGTQVTVSS | low polyreactivity
VQLVESGGGLVQAGGSLRLSCAASGRIFSNNAMGWYRQAPGKEREFVAAITTSAGRTYYADSVKGRFTISRDNAKNTVYLQMNSLKPEDTAVYYCAAEPRQYWEYNYWGQGTQVTVSS | high polyreactivity
QVQLVESGGGLVQAGGSLRLSCAASGLTFGTYAMGWYRQAPGKERELVAAISTSGVRTYYADSVKGRFTISRDNAKNTVYLQMNSLKPEDTAVYYCAARYNRAYSRDYWGQGTQVTVSS | high polyreactivity
QVQLVESGGGLVEAGGSLRLSCEASGFNFSRYVMGWYRQAPGKERELVAVISYRGGSTYYADSVKGRFTISRDYAKITVYLQMNSLKPEDTAVYYCNADTIPDGEDRYDYWGQGTQVTVSS | low polyreactivity
QVQLVESGGGLVQAGGSLRLSCAASGRIFYYNVMGWYRQAPGKERELVADIRSGDRTYYADSVKGRFTISRDNAKNTVYLQMNSLKPEDTAVYYCAADGWYRRGYYYWGQGTQVTVSS | low polyreactivity
QVQLVESGGGLVQAGGSLRISCAASGSNFPYYAMGWYRQAPWQERELVAAISRGGGTTYYADSVKGRFTISRDNAKNTVYLQMISLKPEDTAVYYCAARQWRISTPYDYWGQGTQVTVSS | high polyreactivity
QVQLVESGGGLVQAGGSLRLSCAASGSTFVRNAMGWYRQAPGKERELVAAISGSGSRTYYADSVKGRFTISRDNAKNTVYLQMNSLKPEDTAVYYCAARITAHEYDYWGQGTQVTVSS | high polyreactivity
QVQLVESGGGLVQAGVSLRLSCAASGRTLPRYAMGWYRQAPGKEREFVAAITFGGDSTYYADSVKGRFTISRDNAKNTVYLQMNSLKPEDTAVYSCAAKSFRGQRFGYWGQGTQVTVSS | high polyreactivity
QVQLVESGGGLVQAGGSLRLSCDASGRTSVIYAMGWYRQAPGKERELVASIRRGGSTSYADSVKGRFTISRDNAKNTVYLQMNSLKPEDTAVYYCASTFKSGMDYWGQGTQVTVSS | high polyreactivity
QVQHVESGGGLVQAGGSLRLICAASGSTFGYNAMGWYRHAPGKERELVARITSSGGATYYADSVKWRFTISRDNAKHTVYLLKNSLKPEDTAVYYCAAGYPYRAVYRYYYWGQGTQVTVSS | high polyreactivity

Sequence | polyreactivity (PSR sort gate)
QVQLVESGGGLVQAGGSLRLSCAASGFIFDGYAMGWYRQAPGKERELVAAIDSGGDRTYYADSVKGRFTISRDNAMNTVYLQMNSLKPEDTAVYYCAADSSDPTGYDYWGQGTQVTVSS | low polyreactivity
QVQLVESGGGLVQAGGSLRLSCAASGSTLPGNVMGWYRQAPGKERELVAAISKRGASTYYADSVKGRFTISRDNAKYTVYLLMNSLKPEDTAVYYCATRTRGSVFRFDYWGQGTQVTVSS | high polyreactivity
QVQLVESGGGLVQAGGSLRLSCAASGRIFGYYAMGWYRQAPGKERELVAAIRRSGGSTYADSVKGRFTISRDNAKNTVYLQMNSLKPEDTAVYYCAAWIYEYDYWGQGTQVTVSS | high polyreactivity
QVQLVESGGGLVQAGGSLRLSCAASGSIFSTNDRGWYRQAPGKERELVAAISVSGGSTYYADSVKGRFTISRDNAKNTVYLQMNSLKPEDTAVYYCNADYTRGTMYYWGQGTQVTVSS | low polyreactivity
QVQLVESGGGLVQAGGSLRLSSAASGSTFYYNAMGWYRQAPGKEREFVAAITYTGGSTDYADSVKGRFTISRDNAKNTVYLQMNSLKPEDTAVYYCAKGTYGYISTWYDYWGQGTQVTVSS | low polyreactivity
QVQLVESGGGLVQAGGSLRLSCAASGSIFTDYTMGWYRQAPGKERELVAAISWIGDSTDYADSVKGRFTISRDNAKNTVYLQMNSLNPEDTAVYYCAKSRAGRYNDYDYWGQGTQVTVSS | low polyreactivity
QVQLVESGGGLVQAGGSLRLSCAASGRTFRYNAMGWYRQAPGKERELVAAINWNGGSTYYADSVKGRFTISRDNAKNTVYLQMNSLKPEDTAVYYCAAYPGHGVTYWDRYYYWGQGTQVTVSS | high polyreactivity
QVQLVESGGGLVQAGGSLRLSCAASGFTFFEDNAMGWYRQAPGKERELVAAITSGGSTNYADSVKGRFTFSRDNAKNTVYLQMNSLKPEDTAVYYCAKDRVPLKTRFYYFPWGYDYWGQGTQVTVSS | low polyreactivity
QVQLVESGGGLVQAGGSLRLSCAASGSIFPQYAMGWYRQAPGKERELVASITDSGGRTYYADSVKGRFTISRDNAKNTVYLQMHSLKPEDTAVYYCAAVSLWWSDYYFVEYDYWGQGTQVTVSS | high polyreactivity
QVQLVESGGGLVQAGGSLRLSCAASGGIFGANAMGWYRQAPGKERELVAAITWRGGSTYYADSVKGRFTISRDNAKNTVYLQMNSLKPEDTAVYYCAKSFVRYKGRYYWGQGTQVTVSS | high polyreactivity
QVQLVESGGGLVQAGGSLRLSCAASGFISSENAMGWYRQAPGKERELVAAISSGGSTNYADSVKGRFTISRDNAKNTVYLQMNSLKPEDTAVYYCAATLPGWYNEDDSWGQGTQVNVSS | low polyreactivity
QVQLVESGAGLVQAGGSLRLSCAPSGRIFYYAMGWYRQAPGKERELVAAISSGGSTNYADSVKGRFTISRDNSKNSVYLQMNSLKPEDTAVYYCAADRYWRWPRRDYWGQGTQVTVSS | low polyreactivity
QVQLVESGGGLVQEGGSLSLSCAASGLTFTGNAMAWYRQAPGKEREFVAAIRWSAGSTYYADSVKGRFTISRDNAKNTVYLQMNSLKPEDTAVYYCYAALNVSGHYPNDYCGQGTQVTVSS | low polyreactivity
PVQLVESGGGLVQAGGSLRLSWAASGRIFVVNAMGWYRQAPGKEREFLASITRGASTYADSVKGRFTISRDNAKNTVYLQMNSLKPEDTAVYYCSDAKRPQVVRYDWTKLEYWGQGTQVTVSS | high polyreactivity
QVQLVESGGGLVQAGGSLRLSCASSGSTFWPNAMGWYRQAPGKERELVAAITGGGGTNYADSVKGRFTISRDNAKNTVYLQMNSLKPEDTAVYYCAAKKVNSRSHVKYYYWGQGTQVTVSS | high polyreactivity
QVQLVESGGGLVQAGGSLLLSCAASGRTFTGYAMGGYRQAPVKERELVAAISASGGSTYYADSVKGRFTISRDNAKNTVYLQMNSLIPEDTAVYYCAAETWYSVLWEEGYDYWGQGTQVTVSS | low polyreactivity
QVQLVESGGGLVQEGGSLRLSCAASGLIFRYYGMGWYRQAPGKERELVAAIRWSAGSTYYADSVKGRFTNSRDYAKITVYFQMNSLKPEDTAVYYCAVAIGYVYKPYYYWGQGTQVTVSS | high polyreactivity
QVQLVESGGGLVQAGGSLRLSCAASGRTIRYYTMGWYRQAPGKERELVAAISRSGGNTYYADSVKGRFTISRDNAKITVYLQMNSLKPEETAVYYCNKEYRHYVGRHDYWGQGTQVTVSS | high polyreactivity
QVQLVESGGGLVQAGGSLRLSCAASGSFFASYSMGWYRQAPAKERELVAAITYSGSRTYYADSVKGRFTISRDNAKNTVYLQMNSLKPEDSAVYYCNADYYWYPYEDDYWGQGTQVTVSS | low polyreactivity
QVQLVESVGGLVQAGGSLRLSCAASGSIFFTYTMGWYRQAPGKERELVAAISSGGITNYADSVKGRFTISRDNAKKTVYFQMNSLKPEDTAVYYCAVDGGEFSSYGYWGQGTQVTVSS | low polyreactivity

Source: the nanobody polyreactivity screen of Harvey et al. (2022)
